Reference: patent US20040229241A1, “Cloned mammalian polyamine oxidase” (priority 2001, published 2004)

How the values were obtained:
[1] = substrate: NCCCNCCCCNCCCN; experiment: cells, lysate or membranes named; conditions: other: named compound as substrate, Lineweaver-Burk; 37.0 °C
[2] = substrate: NCCCNCCCCNCCCN; experiment: PAO activity of in vitro TnT (wheat germ) produced PAOh1, fluorescent H2O2 assay; format: biochemical, human; conditions: other: Lineweaver/Burke transformation; pH 9.0; 37.0 °C
Experimental: In Vitro Transcription and Translation. In vitro transcription and translation reactions were performed with the TnT-coupled wheat germ extract system. Parallel reactions were prepared by adding an unlabeled amino acid mixture to one reaction and a [^35S]methionine containing amino acid mixture to the other, according to the supplied protocol. Vector pcDNA3.1 and pPAOh1 were linearized by SalI restriction and served as the templates. The labeled translation reactions products were separated by 10% SDS-PAGE, and radioactivity on the labeled PAO band was determined by Phosphor image analysis using Image Quant software (Molecular Dynamics, Sunnyvale, Calif.).
Determination of PAO Enzyme Activity. The cultured H157 cells with or without treatment of 10 μM N^1, N″-bis(ethyl)norspermine (BENSpm) were homogenized with a Dounce tissue homogenizer in ice-cold 0.083 M sodium borate buffer (pH 9.0). […] The enzyme activity was stopped by the addition of 2.0 ml of 0.1 M NaOH solution. The fluorescence intensity was measured with excitation at 323 nm and emission at 426 nm. […] Protein content of the cellular homogenate was determined using the Bio-Rad protein assay kit (Bio-Rad). […] For determination of PAO activity in the product of the unlabeled TnT reaction, 10 μl of TnT reaction were used in the place of the homogenate. […]

B1: purified recombinant human PAOh1/SMO (Homo sapiens) (protein)
chain: MQSCESSGDSADDPLSRGLRRRGQPRVVVIGAGLAGLAAAKALLEQGFTDVTVLEASSHIGGRVQSVKLGHATFELGATWIHGSHGNPIYHLAEANGLLEETTDGERSVGRISLYSKNGVACYLTNHGRRIPKDVVEEFSDLYNEVYNLTQEFFRHDKPVNAESQNSVGVFTREEVRNRIRNDPDDPEATKRLKLAMIQQYLKVESCESSSHSMDEVSLSAFGEWTEIPGAHHIIPSGFMRVVELLAEGIPAHVIQLGKPVRCIHWDQASARPRGPEIEPRGEGDHNHDTGEGGQGGEEPRGGRWDEDEQWSVVVECEDCELIPADHVIVTVSLGVLKRQYTSFFRPGLPTEKVAAIHRLGIGTTDKIFLEFEEPFWGPECNSLQFVWEDEAESHTLTYPPELWYRKICGFDVLYPPERYGHVLSGWICGEEALVMEKCDDEAVAEICTEMLRQFTGNPNIPKPRRILRSAWGSNPYFRGSYSYTQVGSSGADVEKLAKPLPYTESSKTAPMQVLFSGEATHRKYYSTTHGALLSGQREAARLIEMYRDLFQQGT
[1]
  Km: 1.63 µM
  Vmax: 7.72 μmol/mg protein/min

B2: human PAOh1 (Homo sapiens) (protein)
chain: MQSCESSGDSADDPLSRGLRRRGQPRVVVIGAGLAGLAAAKALLEQGFTDVTVLEASSHIGGRVQSVKLGHATFELGATWIHGSHGNPIYHLAEANGLLEETTDGERSVGRISLYSKNGVACYLTNHGRRIPKDVVEEFSDLYNEVYNLTQEFFRHDKPVNAESQNSVGVFTREEVRNRIRNDPDDPEATKRLKLAMIQQYLKVESCESSSHSMDEVSLSAFGEWTEIPGAHHIIPSGFMRVVELLAEGIPAHVIQLGKPVRCIHWDQASARPRGPEIEPRGEGDHNHDTGEGGQGGEEPRGGRWDEDEQWSVVVECEDCELIPADHVIVTVSLGVLKRQYTSFFRPGLPTEKVAAIHRLGIGTTDKIFLEFEEPFWGPECNSLQFVWEDEAESHTLTYPPELWYRKICGFDVLYPPERYGHVLSGWICGEEALVMEKCDDEAVAEICTEMLRQFTGNPNIPKPRRILRSAWGSNPYFRGSYSYTQVGSSGADVEKLAKPLPYTESSKTAPMQVLFSGEATHRKYYSTTHGALLSGQREAARLIEMYRDLFQQGT
notes: made in house; host or cells: TnT-coupled wheat germ extract (Promega), template pPAOh1 (pcDNA3.1)
[2]
  Km: 18 µM
